{"source": "patent US20140086829A1", "about": "(BIOREC S A, published 2014)", "key": {"[1]": {"molecular_target": "T1, human GST-VEGF (human, UniProt P15692-9 27-147)", "T1 construct": "also called GST-VEGF humano; not shown: GST fusion partner", "T1 sequence (looked up)": "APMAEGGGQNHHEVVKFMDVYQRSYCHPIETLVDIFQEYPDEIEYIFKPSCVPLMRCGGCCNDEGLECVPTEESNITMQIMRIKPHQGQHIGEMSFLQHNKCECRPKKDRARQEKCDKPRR", "assay": "competition ELISA on coated GST-VEGF; soluble scFv 2H1 titrated; competitor phage scFv 1D12"}, "[2]": {"molecular_target": "T1, human GST-VEGF", "assay": "competition ELISA on coated GST-VEGF; soluble scFv 2H1 titrated; competitor phage scFv 3E10"}}}
{"binder": "soluble scFv 2H1 antibody fragment (scFv, from another filing) scFv: QQVQLVQSGAEVKKPGESLKISCKGSGYSFTSYWIGWVRQMPGKGLEWMGIIYPGDSDTRYSPSFQGQVTISADKSISTAYLQWSSLKASDTAMYYCARLVVRDTEIWGQGTMVTVSSAPQAKSSGSGSESKVDQAVVTQEPSLTVSPGGTVTLTCASSIGAVTSGNYPNWFQQRPGQPPRALIYSTSNKHSWTPARFSGSLLGGKAALTLSGAQPEDEAEYYCLLSYSGARPVFGGGTKLTVLGAAAGSEQKLISEEDLNSHHHHHH", "values": [{"measurement": "IC50", "setting": "[1]", "value": 58.9, "unit": "µg/mL"}, {"measurement": "IC50", "setting": "[2]", "value": 15.1, "unit": "µg/mL"}]}
